From article PMC9006298

Target: p.Arg127Gln GPIbα (amino acids Met1-Glu301) (human) (UniProt P07359)
Experiment: SPR

Sequence of UniProt P07359 (P07359 17-301 R127Q): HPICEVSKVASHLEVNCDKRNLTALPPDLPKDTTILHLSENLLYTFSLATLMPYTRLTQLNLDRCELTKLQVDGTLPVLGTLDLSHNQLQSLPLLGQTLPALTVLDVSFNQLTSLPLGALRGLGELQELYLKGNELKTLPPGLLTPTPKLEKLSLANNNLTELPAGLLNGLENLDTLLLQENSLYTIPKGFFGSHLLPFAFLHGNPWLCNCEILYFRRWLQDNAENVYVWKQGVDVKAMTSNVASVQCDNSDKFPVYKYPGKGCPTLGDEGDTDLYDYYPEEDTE

## VWF A1 domain (domain or fragment)
  Kd: 2040 nM
